According to US7537932:

Target: mouse Flt3 receptor on Baflt cells (Ba/F3 cells stably transfected with Flt3 cDNA) (mouse) (UniProt Q00342)
Experiment: cell-based or functional assay

Chain of UniProt Q00342 (Q00342 28-1000): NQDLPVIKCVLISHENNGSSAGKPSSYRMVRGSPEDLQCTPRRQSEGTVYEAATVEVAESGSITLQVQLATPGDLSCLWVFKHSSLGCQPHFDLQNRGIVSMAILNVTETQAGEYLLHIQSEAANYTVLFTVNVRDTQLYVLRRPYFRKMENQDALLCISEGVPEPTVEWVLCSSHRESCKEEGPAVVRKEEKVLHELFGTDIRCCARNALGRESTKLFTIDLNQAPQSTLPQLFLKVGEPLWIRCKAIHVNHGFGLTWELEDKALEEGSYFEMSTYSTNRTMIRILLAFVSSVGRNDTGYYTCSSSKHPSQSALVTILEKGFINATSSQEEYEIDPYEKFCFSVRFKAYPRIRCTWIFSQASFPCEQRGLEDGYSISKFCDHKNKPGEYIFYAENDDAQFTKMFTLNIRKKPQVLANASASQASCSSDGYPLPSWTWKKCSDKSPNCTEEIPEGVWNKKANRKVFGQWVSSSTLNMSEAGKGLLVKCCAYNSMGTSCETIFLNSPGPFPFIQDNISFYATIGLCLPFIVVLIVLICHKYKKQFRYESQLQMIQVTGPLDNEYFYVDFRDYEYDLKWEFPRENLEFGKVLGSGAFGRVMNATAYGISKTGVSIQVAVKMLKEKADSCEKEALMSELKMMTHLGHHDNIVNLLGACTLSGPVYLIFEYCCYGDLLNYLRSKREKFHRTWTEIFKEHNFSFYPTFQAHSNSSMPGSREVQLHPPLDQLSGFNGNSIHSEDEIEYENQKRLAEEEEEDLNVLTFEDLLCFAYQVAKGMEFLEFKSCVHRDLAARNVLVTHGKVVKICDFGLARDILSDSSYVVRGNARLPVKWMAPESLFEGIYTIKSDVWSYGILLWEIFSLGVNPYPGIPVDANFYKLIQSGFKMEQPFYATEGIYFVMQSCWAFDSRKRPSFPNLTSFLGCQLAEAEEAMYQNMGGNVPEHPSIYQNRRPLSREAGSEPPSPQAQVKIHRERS

Question: “purified native mouse Flt3 ligand (naturally occurring soluble form from TA4 thymic stromal cell conditioned medium) (from UniProt P49772 27-189)” was tested. Which specific activity in the bioassay (MTT assay, Baflt minus Ba/F3) did it give?
Answer: Its specific activity in the bioassay (MTT assay, Baflt minus Ba/F3) is 3e+06 units/mg.

Question: What about the specific activity on the Baf assay (MTT survival assay, Baflt minus Baf signal) (Units per milligram) of the same substance?
Answer: The specific activity on the Baf assay (MTT survival assay, Baflt minus Baf signal) (Units per milligram) was 1e+07.
